Legend:
[1] = target: full-length coagulation factor XII purified from human plasma (UniProt P00748)
[2] = target: cathepsin K-cleaved FXII (UniProt P00748)
[3] = target: recombinant human pro-HGF (UniProt P14210)
recombinant human pro-HGF, sequence (P14210 32-728): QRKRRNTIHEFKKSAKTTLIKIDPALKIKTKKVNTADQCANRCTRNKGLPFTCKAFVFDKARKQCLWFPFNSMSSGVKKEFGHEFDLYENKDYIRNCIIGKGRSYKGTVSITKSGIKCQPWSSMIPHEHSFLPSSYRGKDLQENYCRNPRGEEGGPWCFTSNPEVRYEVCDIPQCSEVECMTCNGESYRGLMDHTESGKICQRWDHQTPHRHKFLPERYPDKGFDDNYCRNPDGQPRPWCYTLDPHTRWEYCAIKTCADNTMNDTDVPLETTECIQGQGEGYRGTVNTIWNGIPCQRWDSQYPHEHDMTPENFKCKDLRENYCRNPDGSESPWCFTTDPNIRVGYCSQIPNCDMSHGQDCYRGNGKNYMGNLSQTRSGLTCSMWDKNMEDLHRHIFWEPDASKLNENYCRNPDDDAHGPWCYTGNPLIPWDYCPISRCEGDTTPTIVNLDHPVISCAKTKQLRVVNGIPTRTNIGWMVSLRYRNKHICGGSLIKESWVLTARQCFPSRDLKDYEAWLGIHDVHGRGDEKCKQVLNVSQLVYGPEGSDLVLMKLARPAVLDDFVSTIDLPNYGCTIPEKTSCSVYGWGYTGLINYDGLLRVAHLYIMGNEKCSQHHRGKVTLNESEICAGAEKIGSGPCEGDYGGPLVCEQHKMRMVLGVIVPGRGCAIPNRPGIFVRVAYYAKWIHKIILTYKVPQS

plasma kallikrein, sequence (chain, as listed by the source): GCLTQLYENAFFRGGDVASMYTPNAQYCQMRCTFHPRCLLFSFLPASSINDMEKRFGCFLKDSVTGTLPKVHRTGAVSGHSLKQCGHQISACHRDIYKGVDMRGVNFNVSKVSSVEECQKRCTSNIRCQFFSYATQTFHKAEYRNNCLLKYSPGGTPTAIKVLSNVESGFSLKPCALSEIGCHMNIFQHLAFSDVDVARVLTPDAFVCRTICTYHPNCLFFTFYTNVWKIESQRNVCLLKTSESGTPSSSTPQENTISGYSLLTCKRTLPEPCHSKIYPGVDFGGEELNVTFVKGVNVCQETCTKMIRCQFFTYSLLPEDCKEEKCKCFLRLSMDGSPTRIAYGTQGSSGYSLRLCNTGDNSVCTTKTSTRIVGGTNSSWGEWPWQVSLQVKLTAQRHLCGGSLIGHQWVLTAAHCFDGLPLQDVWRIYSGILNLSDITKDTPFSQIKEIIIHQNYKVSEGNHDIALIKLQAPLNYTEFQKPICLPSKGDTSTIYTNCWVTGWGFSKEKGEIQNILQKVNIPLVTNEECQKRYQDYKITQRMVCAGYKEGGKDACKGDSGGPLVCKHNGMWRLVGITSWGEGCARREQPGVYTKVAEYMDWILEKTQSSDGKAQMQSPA
cathepsin K-cleaved FXII, sequence (P00748 20-615): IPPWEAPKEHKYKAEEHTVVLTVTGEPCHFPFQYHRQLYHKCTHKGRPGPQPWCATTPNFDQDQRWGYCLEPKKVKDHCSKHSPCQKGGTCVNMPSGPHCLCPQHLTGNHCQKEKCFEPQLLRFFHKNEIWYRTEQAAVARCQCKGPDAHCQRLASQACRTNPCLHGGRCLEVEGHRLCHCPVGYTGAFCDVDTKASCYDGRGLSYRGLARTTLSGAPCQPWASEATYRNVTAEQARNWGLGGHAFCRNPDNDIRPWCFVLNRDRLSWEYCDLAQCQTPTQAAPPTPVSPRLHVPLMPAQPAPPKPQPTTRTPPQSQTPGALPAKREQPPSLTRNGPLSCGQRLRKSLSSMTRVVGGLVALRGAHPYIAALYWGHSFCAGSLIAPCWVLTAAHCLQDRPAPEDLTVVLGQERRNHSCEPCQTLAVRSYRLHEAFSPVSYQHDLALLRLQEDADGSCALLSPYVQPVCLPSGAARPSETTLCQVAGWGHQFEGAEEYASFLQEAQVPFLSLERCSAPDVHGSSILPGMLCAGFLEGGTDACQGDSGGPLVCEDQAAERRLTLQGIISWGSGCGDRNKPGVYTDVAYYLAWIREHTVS
full-length coagulation factor XII purified from human plasma, sequence (P00748 20-615): as above

Substance	FXIIa activity on chromogenic substrate S-2302 after incubation with plasma kallikrein (15 nM, 15 min) [1]	FXIIa activity on chromogenic substrate S-2302 after incubation with plasma kallikrein (15 nM, 15 min) [2]	cleavage of pro-HGF, western blot [3]
plasma kallikrein	Cathepsin-cleaved FXII incubated with kallikrein (15 nM) had much higher activity than full length FXII incubated with kallikrein	cathepsin K-cleaved FXII had dramatically increased activity compared to full-length FXII when incubated with plasma kallikrein	–
thrombin	–	–	other serine proteases found in the brain such as thrombin and tissue plasminogen activator did not convert pro-HGF to HGF
